Measurements reported in PMC8950404, “Signal Sequence-Dependent Orientation of Signal Peptide Fragments to Exosomes” (International Journal of Molecular Sciences, 2022).

Molecular target: T1, recombinant human calmodulin (CALM) 1/2/3 (human, UniProt P0DP23 1-149)
T1 construct: human calmodulin, printed as calmodulin (CALM) 1/2/3; also called His-tagged CALM; source: bought: Abcam; not shown: His tag, N-terminal, kept
Assay: pull-down; hAPP SP (9–17) 500 nM mixed with N-terminally His-tagged CALM 1 μg/mL in xTractor buffer, with or without CaCl2 500 μM, overnight at 4 °C; CALM separated on a Capturem His-Tagged Purification Miniprep; bound peptides read by MALDI-TOF MS/MS
Conditions: both partners purified

Binder	binding result
LAAWTARA (stretch of the signal peptide of human amyloid precursor protein (APP), one residue shorter than hAPP SP (9–17); also called exosomal SP fragment) [C-terminal fragment of APP SP (LAAWTARA)]	binds
LLAAWTARA (residues 9-17 of the signal peptide of human amyloid precursor protein (APP); also called C-terminal fragment of APP SP; source: synthetic peptide, bought: Eurofins Scientific) [hAPP SP (9–17)]	binds
